{"source": "patent US20170342161A1", "about": "(APROGEN KIC, published 2017)", "key": {"[1]": {"molecular_target": "T1, carbonic anhydrase 12 (CA-XII) as expressed by human tumor cell lines (human, UniProt O43570 25-354)", "T1 construct": "also called CA12; CA12 antigen", "T1 sequence (O43570 25-354 limits assumed)": "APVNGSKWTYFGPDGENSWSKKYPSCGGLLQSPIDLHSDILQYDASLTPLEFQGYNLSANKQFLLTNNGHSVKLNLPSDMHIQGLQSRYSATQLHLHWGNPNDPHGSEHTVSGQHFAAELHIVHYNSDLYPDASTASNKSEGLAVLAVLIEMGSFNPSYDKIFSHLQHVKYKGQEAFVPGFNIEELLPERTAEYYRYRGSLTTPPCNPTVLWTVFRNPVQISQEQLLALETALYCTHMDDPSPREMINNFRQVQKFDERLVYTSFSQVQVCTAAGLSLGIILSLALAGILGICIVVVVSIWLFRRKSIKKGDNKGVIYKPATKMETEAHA", "experiment": "flow cytometry, percent positive cells, HCT116 (colon)", "procedure": "(§1) 27B6 and 4B4 monoclonal antibodies were analyzed for binding to various cell lines obtained from KCLB (Korean Cell Line Bank) and SNU (Seoul National University) using flow cytometry. Briefly, various cell lines were obtained from KCLB (Korean Cell Line Bank) and SNU (Seoul National University). At 37° C. under a 5% CO₂ atmosphere, L-132, SW-900, DU145, LNCap, MCF-7, Huh7, and Hs-578T were cultured in Dulbecco's MEM (GIBCO, Invitrogen) supplemented with 10% heat-inactivated fetal bovine serum (FBS; GIBCO, Invitrogen) and A549, NCI-H460, NCI-H417, DLD-1, HCT116, HT-29, SW-480, SW-620, LS174T, PC-3, SNU1, SNU638, SNU719, MKN1, MKN28, MKN45, MKN74, NCI-N87, SK-BR3, MDA-MB231, and MDA-MB453 were cultured in RPMI 1640 (GIBCO, Invitrogen) supplemented with 10% heat-inactivated FBS. […]\n(§2) The cultured cancer cell lines were incubated with the 27B6 or the 4B4 monoclonal antibody of the present disclosure at 4° C. for 30 min, washed with PBS, and treated with FITC-conjugated goat anti-mouse IgG (DiNona Inc, Korea) at 4° C. for 15 min. […] Also, titers of the 27B6 and the 4B4 antibody were measured in various solid tumor cell lines."}, "[2]": {"molecular_target": "T1, carbonic anhydrase 12 (CA-XII) as …", "experiment": "flow cytometry (A549 cells, per paragraph 117)", "procedure": "(§3) Three days post transfection, the supernatant was taken and added to A549 cells which were then incubated at 4° C. for 30 min. Unbound antibodies were removed by centrifugation, together with 3 ml of PBS, at 1500 rpm for 3 min. The bound antibodies were detected by incubation with a 150-fold dilution of the secondary antibody goat anti-Mouse Ig-FITC (Dinona) at 4° C. for 15 min, followed by washing with 3 ml of PBS in the same manner. Thereafter, the antibody titer to A549 cells was measured using flow cytometry. Subsequently, a stable cell line was established. For this, the medium was exchanged with a PowerCHO medium (LONZA, Switzerland) supplemented with 30 nM MTX (Sigma, USA) and 200 μg/ml G418 (Invitrogen, USA), after which clone selection was started. Concentrations of MTX and G418 in the selection medium were increased with the repetition of clone selection rounds. Each round was set to be three weeks. The final round of clone selection was performed in a PowerCHO medium supplemented with 1000 nM MTX and 400 μg/ml G418. Thereafter, the final cell line was established as a single colony through limiting dilution."}, "[3]": {"molecular_target": "T1, carbonic anhydrase 12 (CA-XII) as …", "experiment": "flow cytometry, percent positive cells, NCI-H460 (lung)", "procedure": "as §1, §2"}, "[4]": {"molecular_target": "T1, carbonic anhydrase 12 (CA-XII) as …", "experiment": "flow cytometry (A549 cells, per paragraph 138)", "procedure": "as §3, with “to A549 cells, which were” for “to A549 cells which were”, “was measured by flow cytometry.” for “was measured using flow cytometry.”, “1000 nM of MTX and” for “1000 nM MTX and”, “400 μg/ml of G418. Thereafter,” for “400 μg/ml G418. Thereafter,”"}}}
{"binder": "27B6 monoclonal antibody (antibody, mouse IgG1, V domains shown, also called 27B6 Ab; mouse 27B6 antibody) VH: QVQLQQSGPQLVWPGASVKISCNTSGYSFTNYWIHWVKQRPGQGLEWIGMIDPSDSETRLNQKFKDKTTLTVDRSSSTAYMQVSSSTSEDSAVYYCTRGIRGGYYAMDYWGQGTSVTVSS VL: DIQMTQTTSSLSASLGDRVTISCRASQDISNYLNWYQQKPEGTVKLLIYYTSRLHSGVPSRFSGSGSGTDYSLTISNLEQEDIATYFCQQGDTLPRTFGEGTKLEIR", "values": [{"measurement": "binding result", "setting": "[1]", "value": "binds"}]}
{"binder": "27B6 chimeric antibody (antibody, V domains shown, Chimeric antibody: mouse 27B6 variable regions, the rest 'substituted with the Fc of the human antibody'; Produced in CHO DG44 cells; also called chimeric 27B6; 27B6-HuIgFc) VH: QVQLQQSGPQLVWPGASVKISCNTSGYSFTNYWIHWVKQRPGQGLEWIGMIDPSDSETRLNQKFKDKTTLTVDRSSSTAYMQVSSSTSEDSAVYYCTRGIRGGYYAMDYWGQGTSVTVSS VL: DIQMTQTTSSLSASLGDRVTISCRASQDISNYLNWYQQKPEGTVKLLIYYTSRLHSGVPSRFSGSGSGTDYSLTISNLEQEDIATYFCQQGDTLPRTFGEGTKLEIR", "values": [{"measurement": "binding result", "setting": "[2]", "value": "binds"}]}
{"binder": "4B4 monoclonal antibody (antibody, V domains shown, Mouse hybridoma antibody; also called 4B4 Ab; mouse 4B4 antibody) VH: EIQLQQSGPELVKPGASVKISCKASGYSYTDYNIYWVRQSQGKSLDWIGYIDPANGDTTYNQKFKGKATLTVDKSSSTAFMHLNSLTSDGSAVYFCARPIYYGVYWYFDVWGAGTTVTVS VL: DIVMTQAAPSVPVTPGESVSISCRSSKSLLHSNGNTYLYWFLQRPGQSPQLLIYRMSNLASGVPDRFSGSGSGTAFTLRISRVEAEDVGVYYCMQHLEYPFTFGSGTKLEIK", "values": [{"measurement": "binding result", "setting": "[3]", "value": "binds"}]}
{"binder": "4B4 chimeric antibody (antibody, V domains shown, Chimeric antibody: mouse 4B4 variable regions, the rest 'substituted with the Fc of the human antibody'; Produced in CHO DG44 cells; also called chimeric 4B4; 4B4-HuIgFc) VH: EIQLQQSGPELVKPGASVKISCKASGYSYTDYNIYWVRQSQGKSLDWIGYIDPANGDTTYNQKFKGKATLTVDKSSSTAFMHLNSLTSDGSAVYFCARPIYYGVYWYFDVWGAGTTVTVS VL: DIVMTQAAPSVPVTPGESVSISCRSSKSLLHSNGNTYLYWFLQRPGQSPQLLIYRMSNLASGVPDRFSGSGSGTAFTLRISRVEAEDVGVYYCMQHLEYPFTFGSGTKLEIK", "values": [{"measurement": "binding result", "setting": "[4]", "value": "binds"}]}
